Measurements reported in patent publication US11015206B2, “Compositions and methods comprising sequences having hydroxyphenylpyruvate dioxygenase (HPPD) activity” (PIONEER HI-BRED INTERNATIONAL, INC., priority 2014, dated 2021).

B1: 214T: single substitution 214T in SEQ ID NO:2 (protein)
chain: MGPTPTATAAGAAVAAASAAEQAAFRLVGHRNFVRFNPRSDRFQTLAFHHVELWCADAASAAGRFSFALGVPLAARSDLSTGNSAHASLLLRSGSLSLLFTAPYAHGADAATAALPSFSAAAARRFAADHGLAVRAVALRVADAEDAFRASVAAGARPAFGPVDLGRGFRLAEVELYGDVVLRYVSYPDGAAGEPFLPGFEGVASPGAADYGLTRFDHIVGNVPELAPAAAYMAGFTGFHEFAEFTTEDVGTTESGLNSMALANNSENVLLPLNEPVHGTKRRSQIQTFLDHHGGPGVQHIALASDDVLRTLREMRARSAMGGFEFLPPPLSDYYDGVRRCAGDVLTEAQINECQELGVMVDRDDQGVLLQIFTKPVGDRPTFFLEIIQRIGCMEKDEKGQEYQKGGCGGFGKGNFGQLFKSIEDYEKSLEAKQAAAAATAQGS
modifications: Zea mays variant form created by artificial means.
B2: P056028-F-05 (protein)
chain: MGPTPTATAAGAAVAAASAAEQAAFRLVGHRNFVRFNPRSDRFQTLAFHHVELWCADAASAAGRFSFALGVPLAARSDLSTGNSAHASLLLRSGSLSLLFTAPYAHGADAATAALPSFSAAAARRFAADHGLAVRAVALRVADAEDAFRASVAAGARPAFGPVDLGRGFRLAEVELYGDVVLRYVSYPDGGAGEPFLPGFEGVASPGAADYGLSRFDHIVGNVPELAPAAAYMAGFTGFHEFAEFTTEDVGTTESGLNSMALANNSENVLLPLNEPVHGTKRRSQIQTFLDHHGGPGVQHIALASDDVLRTLREMRARSAMGGFEFLPPPLSDYYDGVRRCAGDVLTEAQINECQELGVMVDRDDEGVLLQIFTKPVGDRPTFFLEIIQRIGCMEKDEKGQEYQKGGCGGFGKGNFGQLFKSIEDYEKSLEAKQAAAAATAQGS
modifications: Zea mays variant form created by artificial means.
B3: 342V: single substitution 342V in SEQ ID NO:2 (protein)
chain: MGPTPTATAAGAAVAAASAAEQAAFRLVGHRNFVRFNPRSDRFQTLAFHHVELWCADAASAAGRFSFALGVPLAARSDLSTGNSAHASLLLRSGSLSLLFTAPYAHGADAATAALPSFSAAAARRFAADHGLAVRAVALRVADAEDAFRASVAAGARPAFGPVDLGRGFRLAEVELYGDVVLRYVSYPDGAAGEPFLPGFEGVASPGAADYGLSRFDHIVGNVPELAPAAAYMAGFTGFHEFAEFTTEDVGTTESGLNSMALANNSENVLLPLNEPVHGTKRRSQIQTFLDHHGGPGVQHIALASDDVLRTLREMRARSAMGGFEFLPPPLSDYYDGVRRCVGDVLTEAQINECQELGVMVDRDDQGVLLQIFTKPVGDRPTFFLEIIQRIGCMEKDEKGQEYQKGGCGGFGKGNFGQLFKSIEDYEKSLEAKQAAAAATAQGS
modifications: Zea mays variant form created by artificial means.

Columns and labels:
Type in all cases: biochemical, Z. mays
[1] = tested on: 4-hydroxyphenylpyruvate dioxygenase (HPPD); assay: HPPD activity coupled assay with HGD; substrate saturation kinetic parameters (kcat, KM)
How it was run: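 Coupled continuous assay: His-tagged HPPD (5 to 240 nM, E. coli-expressed, Ni-NTA-purified) with 50 nM P. aeruginosa HGD in 25 mM Hepes pH 7, 2 mM ascorbate, 10 μM FeSO4; maleylacetoacetate followed at 320 nm. KM and Vmax from Lineweaver-Burke fits over 3.33–100 μM HPP.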

[2] = tested on: 4-hydroxyphenylpyruvate dioxygenase (HPPD); assay: ON rate ratio: HPPD reaction rate with vs without inhibitor in the 70 to 90 second interval; conditions: for ON ratio (parameters with tembotrione): Table 5
How it was run: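 Indicator of inhibitor on-rate: reaction velocity in the 70 to 90 second window with 4 μM inhibitor divided by that without. Reactions contained 100 μM HPP and 60 or 120 nM HPPD; slower binding gives a larger ratio.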

[3] = tested on: 4-hydroxyphenylpyruvate dioxygenase (HPPD); assay: OFF rate ratio: release of inhibitor from pre-formed enzyme-inhibitor complex; conditions: for OFF ratio (parameters with tembotrione): Table 5
How it was run: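 Inhibitor release from pre-formed complex (enzyme 7.2 μM, inhibitor 8 μM, 1 h RT) tracked as accelerating HPPD activity at 320 nm over 12 min, coupled via 50 nM HGD with 100 μM HPP at pH 7. OFF rate ratio: steady-state velocity relative to uninhibited initial velocity.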

[4] = tested on: 4-hydroxyphenylpyruvate dioxygenase (HPPD); assay: Insensitivity parameter (ON × OFF) and trait fitness (ON × OFF × kcat/KM or × kcat); design: key to ON × OFF / Insensitivity, mesotrione, ON × OFF / Insensitivity, tembotrione, ON × OFF / Insensitivity, topramezone, ON × OFF / Insensitivity, sulcotrione, ON × OFF / Insensitivity, isoxaflutole (DKN), ON × OFF: insensitivity = ON rate ratio × OFF rate ratio (surrogate for KD); conditions: for ON × OFF × kcat, Value / ON × OFF × kcat, Fold vs wt / ON × OFF, fold vs wt / ON × OFF (parameters with tembotrione): Table 5; for ON × OFF × kcat, Fold vs wt / ON × OFF, fold vs wt: fold vs maize wild type HPPD; for ON × OFF (parameters with tembotrione): insensitivity parameter
How it was run: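 Trait fitness combines catalysis and insensitivity as kcat/KM × ON rate ratio × OFF rate ratio. The insensitivity parameter is the product of ON and OFF rate ratios, used in place of KD because the ON rate ratio is inverse.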

[5] = tested on: 4-hydroxyphenylpyruvate dioxygenase (HPPD); assay: Estimate of kcat from initial rate at saturating hydroxyphenylpyruvate without inhibitor (ON rate ratio assay)
How it was run: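 kcat was estimated from the initial reaction rate with known enzyme level (60 or 120 nM HPPD). Hydroxyphenylpyruvate was at a saturating 100 μM, with no inhibitor present.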

[6] = Table 6, single substitutions in SEQ ID NO:2
[7] = DKN (diketonitrile form of isoxaflutole)
[8] = Table 5, single substitutions in Round 7 variant 9070 (SEQ ID NO:2), estimate from initial rate at saturating hydroxyphenylpyruvate without inhibitor
[9] = substrate saturation kinetic analysis
[10] = Table 7, tembotrione, combinatorial variants

Molecule	Km ([1]; Table 6)	kcat [1, 6]	ON ratio (parameters with tembotrione) ([2]; tembotrione)	OFF ratio (parameters with tembotrione) ([3]; tembotrione)	Insensitivity parameter, ON × OFF [4, 7]	Insensitivity parameter, ON × OFF ([4]; Mesotrione, Table 6)	Insensitivity parameter, ON × OFF ([4]; Sulcotrione)	ON × OFF × kcat, Value ([4]; tembotrione)	ON × OFF × kcat, Fold vs wt ([4]; tembotrione)	ON × OFF, fold vs wt ([4]; tembotrione)	ON × OFF (parameters with tembotrione) ([4]; tembotrione)	Insensitivity parameter, ON × OFF ([4]; Tembotrione)	Insensitivity parameter, ON × OFF ([4]; Topramezon)	kcat [5, 8]	also measured
B1	2.94 µM	1.4 s⁻¹	0.74	0.14	0.21	0.41	0.50	4.03	3.76	20.2	0.10	0.17	0.23	0.653 s⁻¹	
B2															Km [1, 9]: 2.39 µM; kcat [1, 9]: 0.538 s⁻¹; ON rate ratio [2, 10]: 0.700; Insensitivity, mesotrione, Rate ratio ON ([2]; inhibitor mesotrione): 0.64; Insensitivity, tembotrione, Rate ratio ON ([2]; inhibitor tembotrione): 0.70; OFF rate ratio [3, 10]: 0.395; Insensitivity, mesotrione, Rate ratio OFF ([3]; inhibitor mesotrione): 1.00; Insensitivity, tembotrione, Rate ratio OFF ([3]; inhibitor tembotrione): 0.39; ON × OFF ([4]; Megatable 3, shuffled variants): 0.276; ON × OFF × kcat ([4]; Megatable 3, shuffled variants): 7.57; ON × OFF [4, 10]: 0.276; ON × OFF × kcat [4, 10]: 7.57; Insensitivity, mesotrione, ON × OFF ([4]; inhibitor mesotrione): 0.64; Insensitivity, mesotrione, Trait Fitness ([4]; inhibitor mesotrione): 8.7; Insensitivity, tembotrione, ON × OFF ([4]; inhibitor tembotrione): 0.28; Insensitivity, tembotrione, Trait fitness ([4]; inhibitor tembotrione): 3.74; kcat ([5]; Megatable 3, shuffled variants): 0.457 s⁻¹; kcat ([5]; Table 7, combinatorial variants): 0.457 s⁻¹
B3	2.59 µM	0.903 s⁻¹	0.78	0.13	0.22	0.42	0.51	4.08	3.82	19.7	0.10	0.17	0.23	0.677 s⁻¹	
